{"source": "paper PMC6743065", "about": "“Structural and functional characterization of the mitochondrial complex IV assembly factor Coa6” (Life Science Alliance, 2019)"}
{"molecular_target": "the molecule itself", "assay": "SEC; analytical SEC, Superdex 200 Increase 3.2/300, 100 μg protein, 20 mM Tris-MES pH 8.0, 150 mM NaCl, 0.05 ml/min; elution volumes compared with that of ^WTCoa6"}
{"protein": "^Y97A/Y104ACoa6 (natural protein, human, five residues left at the N terminus after cleavage of the GST tag with PreScission Protease; Coa6, human; residues 47-125 of the full-length Coa6 isoform 1 (UniProtKB Q5JTJ3), mutations introduced into the ^WTCoa6 ORF; not shown: GST, N-terminal, cleaved) GPLGSMAAPSMKERQVCWGARDEYWKCLDENLEDASQCKKLRSSFESSCPQQWIKAFDKRRDALKFKEKFEAGQFEPSETTAKS", "stoichiometry N": 2}
{"protein": "^R101ACoa6 (natural protein, human, five residues left at the N terminus after cleavage of the GST tag with PreScission Protease; Coa6, human; residues 47-125 of the full-length Coa6 isoform 1 (UniProtKB Q5JTJ3), mutation introduced into the ^WTCoa6 ORF; not shown: GST, N-terminal, cleaved) GPLGSMAAPSMKERQVCWGARDEYWKCLDENLEDASQCKKLRSSFESSCPQQWIKYFDKARDYLKFKEKFEAGQFEPSETTAKS", "stoichiometry N": 2}
{"protein": "^Y104ACoa6 (natural protein, human, five residues left at the N terminus after cleavage of the GST tag with PreScission Protease; Coa6, human; residues 47-125 of the full-length Coa6 isoform 1 (UniProtKB Q5JTJ3), mutation introduced into the ^WTCoa6 ORF; not shown: GST, N-terminal, cleaved) GPLGSMAAPSMKERQVCWGARDEYWKCLDENLEDASQCKKLRSSFESSCPQQWIKYFDKRRDALKFKEKFEAGQFEPSETTAKS", "stoichiometry N": 2}
{"protein": "human wild-type Coa6 (^WTCoa6) (natural protein, five residues left at the N terminus after cleavage of the GST tag with PreScission Protease; Coa6, human; isoform 3, composed of residues 47-125 of the full-length Coa6 isoform 1 (UniProtKB Q5JTJ3); the N-terminal residue is numbered Met47; Fully oxidized: intramolecular disulfides Cys58-Cys90 and Cys68-Cys79; also called Coa6 isoform 3; not shown: GST, N-terminal, cleaved) GPLGSMAAPSMKERQVCWGARDEYWKCLDENLEDASQCKKLRSSFESSCPQQWIKYFDKRRDYLKFKEKFEAGQFEPSETTAKS", "stoichiometry N": 2}
{"protein": "^Y97ACoa6 (natural protein, human, five residues left at the N terminus after cleavage of the GST tag with PreScission Protease; Coa6, human; residues 47-125 of the full-length Coa6 isoform 1 (UniProtKB Q5JTJ3), mutation introduced into the ^WTCoa6 ORF; not shown: GST, N-terminal, cleaved) GPLGSMAAPSMKERQVCWGARDEYWKCLDENLEDASQCKKLRSSFESSCPQQWIKAFDKRRDYLKFKEKFEAGQFEPSETTAKS", "stoichiometry N": 2}
{"molecular_target": "the molecule itself", "assay": "crystal structure; ^W59CCoa6 25 mg/ml in 20 mM Tris-MES pH 8.0, 150 mM NaCl; crystallized with 0.1 M Bis-Tris pH 5.7, 0.23 M MgCl2, 29% PEG 3350, 20°C; 2.2 Å; four molecules per asymmetric unit"}
{"protein": "pathogenic mutant protein ^W59CCoa6 (natural protein, human, five residues left at the N terminus after cleavage of the GST tag with PreScission Protease; Coa6, human; residues 47-125 of the full-length Coa6 isoform 1 (UniProtKB Q5JTJ3) with the patient mutation W59C; In the crystal, Cys59 of each chain is joined by an intermolecular disulfide to Cys59 of another chain; not shown: GST, N-terminal, cleaved) GPLGSMAAPSMKERQVCCGARDEYWKCLDENLEDASQCKKLRSSFESSCPQQWIKYFDKRRDYLKFKEKFEAGQFEPSETTAKS", "binding result": "binds"}
